Results: paper doi:10.1101/556266 (bioRxiv, 2019)

T1: GST-ActI-SIPA1L2-1-624 (rat, UniProt Q5JCS6 1-624)
T1 sequence: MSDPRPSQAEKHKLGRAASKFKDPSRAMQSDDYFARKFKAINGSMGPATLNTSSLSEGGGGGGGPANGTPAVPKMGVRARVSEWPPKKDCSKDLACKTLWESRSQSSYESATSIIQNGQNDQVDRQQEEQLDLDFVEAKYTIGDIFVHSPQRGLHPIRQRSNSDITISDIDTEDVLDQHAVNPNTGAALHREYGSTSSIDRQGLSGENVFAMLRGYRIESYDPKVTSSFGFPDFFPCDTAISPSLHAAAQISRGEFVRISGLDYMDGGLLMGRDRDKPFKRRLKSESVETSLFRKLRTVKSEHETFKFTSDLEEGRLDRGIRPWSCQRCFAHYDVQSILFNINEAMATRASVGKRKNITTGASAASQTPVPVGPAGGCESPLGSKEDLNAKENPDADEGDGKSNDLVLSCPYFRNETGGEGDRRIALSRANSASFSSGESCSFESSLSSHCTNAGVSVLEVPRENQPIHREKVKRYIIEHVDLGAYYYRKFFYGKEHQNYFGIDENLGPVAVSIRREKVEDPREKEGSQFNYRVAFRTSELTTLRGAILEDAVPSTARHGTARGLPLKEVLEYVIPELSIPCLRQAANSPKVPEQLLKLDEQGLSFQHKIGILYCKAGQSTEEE

T2: GST-SIPA1l2-86-99 (rat, UniProt Q5JCS6 86-99)
T2 chain: PKKDCSKDLACKTL


Experiments:
GST-ActI-SIPA1L2-1-624 = target: T1, GST-ActI-SIPA1L2-1-624; test: pull-down
GST-SIPA1l2-86-99 = target: T2, GST-SIPA1l2-86-99; test: pull-down

Row | binding result (GST-ActI-SIPA1L2-1-624) | binding result (GST-SIPA1l2-86-99) | Binder
1 | binds | – | MBP-TrkB-454-821 (domain or fragment) not shown
2 | – | binds | KLARHSKFGMKG [MBP-TrkB-454-465]
